Test system: T1, cbz-FAF[125I]Y-NH2
T1 sequence: FAFY

B1: papain (enzyme, UniProt P00784 134-345, looked up)
Papain: IPEYVDWRQKGAVTPVKNQGSCGSCWAFSAVVTIEGIIKIRTGNLNEYSEQELLDCDRRSYGCNGGYPWSALQLVAQYGIHYRNTYPYEGVQRYCRSREKGPYAAKTDGVRQVQPYNEGALLYSIANQPVSVVLEAAGKDFQLYRGGIFVGPCGNKVDHAVAAVGYGPNYILIKNSWGTGWGENGYIRIKRGTGNSYGVCGLYTSSFYPVKN
With B1 the Amount necessary to degrade 50% of substrate in 30 min was 2 µg.
